Measured values from paper doi:10.1101/2023.02.18.529070 (bioRxiv, 2023).
Values belong to the binder of their own block, whether it stands above or below them.

Target: recombinant human HER3 extracellular domain (human, UniProt P21860 20-643)
Assay: BLI

recombinant human HER3 extracellular domain, sequence (P21860 20-643): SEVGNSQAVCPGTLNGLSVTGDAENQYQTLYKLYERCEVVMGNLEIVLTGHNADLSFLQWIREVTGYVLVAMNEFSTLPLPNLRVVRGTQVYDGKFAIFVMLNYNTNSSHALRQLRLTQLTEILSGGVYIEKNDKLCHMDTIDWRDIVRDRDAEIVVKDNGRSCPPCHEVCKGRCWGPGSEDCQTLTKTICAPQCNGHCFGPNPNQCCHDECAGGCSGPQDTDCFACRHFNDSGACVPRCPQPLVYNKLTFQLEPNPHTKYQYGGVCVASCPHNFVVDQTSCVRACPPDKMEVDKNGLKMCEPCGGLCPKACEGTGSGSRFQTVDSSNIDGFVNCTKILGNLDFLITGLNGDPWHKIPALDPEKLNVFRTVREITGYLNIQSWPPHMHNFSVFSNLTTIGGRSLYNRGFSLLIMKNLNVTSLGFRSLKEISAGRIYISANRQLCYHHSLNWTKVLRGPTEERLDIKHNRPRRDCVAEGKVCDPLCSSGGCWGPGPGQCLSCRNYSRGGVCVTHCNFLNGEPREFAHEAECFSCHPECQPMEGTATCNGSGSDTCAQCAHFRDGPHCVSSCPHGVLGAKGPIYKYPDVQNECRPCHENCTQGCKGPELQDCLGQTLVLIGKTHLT

binding result: binds
B1: neuregulin-beta1 (Ser 2-Lys 246 N-terminal fragment) (ligand, human, UniProt Q02297-6 2-246, looked up)
chain: SERKEGRGKGKGKKKERGSGKKPESAAGSQSPALPPRLKEMKSQESAAGSKLVLRCETSSEYSSLRFKWFKNGNELNRKNKPQNIKIQKKPGKSELRINKASLADSGEYMCKVISKLGNDSASANITIVESNEIITGMPASTEGAYVSSESPIRISVSTEGANTSSSTSTSTTGTSHLVKCAEKEKTFCVNGGECFMVKDLSNPSRYLCKCPNEFTGDRCQNYVMASFYKHLGIEFMEAEELYQK

Kd: 100 nM
fold binding affinity against neuregulin-HER3: > 3 fold
B2: recombinant human LRG1 (leucine-rich alpha-2-glycoprotein 1) (ligand, UniProt P02750 36-347, looked up)
chain: VTLSPKDCQVFRSDHGSSISCQPPAEIPGYLPADTVHLAVEFFNLTHLPANLLQGASKLQELHLSSNGLESLSPEFLRPVPQLRVLDLTRNALTGLPPGLFQASATLDTLVLKENQLEVLEVSWLHGLKALGHLDLSGNRLRKLPPGLLANFTLLRTLDLGENQLETLPPDLLRGPLQLERLHLEGNKLQVLGKDLLLPQPDLRYLFLNGNKLARVAAGAFQGLRQLDMLDLSNNSLASVPEGLWASLGQPNWDMRDGFDISGNPWICDQNLSDLYRWLQAQKDKMFSQNDTRCAGPEAVKGQTLLAVAKSQ
